Laboratory results reported in the Human Domainome abundance scans (Beltran et al. 2025).
± gives the uncertainty stated by the source.

B1: Nuclear receptor subfamily 1 group D member 2, residues 103 to 171; numbered along this chain, Q14995 (parent)
chain: CKVCGDVASGFHYGVHACEGCKGFFRRSIQQNIQYKKCLKNENCSIMRMNRNRCQQCRFKKCLSVGMSR

Variants of: B1
Assay: abundance fitness (aPCA) (normalised: wild type 0, dead -1); higher = more abundant; growth selection in yeast, the domain comes from the species named
Details: Homo sapiens

Abundance fitness of substitutions, site by site:
L63: K -0.8 ± 0.28 | I 0.268 ± 0.22 | R -0.991 ± 0.25 | Q -0.329 ± 0.21 | N -0.911 ± 0.47 | V -0.502 ± 0.2 | G -0.92 ± 0.24 | E -0.121 ± 0.15 | T -0.523 ± 0.47 | A -0.071 ± 0.26 | M -0.914 ± 0.33 | P -0.789 ± 0.33
K60: W 0.021 ± 0.2 | N -0.056 ± 0.21 | A -0.009 ± 0.16 | E 0.033 ± 0.12 | I 0.406 ± 0.2 | L -0.097 ± 0.087 | F 0.044 ± 0.2 | G -0.428 ± 0.15 | M -0.141 ± 0.14 | S -0.284 ± 0.24 | V -0.249 ± 0.17
N52: P -0.698 ± 0.46 | W -0.706 ± 0.4 | L -0.14 ± 0.18 | T -0.756 ± 0.44 | R -0.805 ± 0.28 | S -0.395 ± 0.46 | F -0.352 ± 0.33 | A 0.394 ± 0.25 | I -0.325 ± 0.29 | M -0.419 ± 0.23 | E 0.139 ± 0.26 | V -0.532 ± 0.34
M47: S 0.184 ± 0.083 | V -0.051 ± 0.047 | A 0.006 ± 0.1 | H 0.07 ± 0.16 | P -0.237 ± 0.13 | D 0.283 ± 0.11 | Y -0.482 ± 0.24 | K -0.185 ± 0.25 | I -0.421 ± 0.24 | T 0.307 ± 0.13 | E 0.408 ± 0.15 | R -0.062 ± 0.074 | L -0.057 ± 0.099
M49: G 0.044 ± 0.12 | E 0.114 ± 0.12 | P -0.178 ± 0.25 | I 0.56 ± 0.37 | R -0.316 ± 0.11 | D 0.428 ± 0.11 | T 0.147 ± 0.18 | Q 0.15 ± 0.18 | S 0.076 ± 0.15 | N 0.093 ± 0.36 | F 0.195 ± 0.37 | Y 0.128 ± 0.37 | K 0.12 ± 0.23
S64: G -0.481 ± 0.13 | Q 0.12 ± 0.089 | Y -0.512 ± 0.14 | C -0.469 ± 0.38 | N -0.36 ± 0.14 | T -0.002 ± 0.094 | R -0.334 ± 0.1 | P -0.857 ± 0.19 | V -0.107 ± 0.09 | K 0.236 ± 0.095 | E 0.346 ± 0.11 | H -0.449 ± 0.19 | M -0.072 ± 0.11 | D -0.051 ± 0.1 | L 0.044 ± 0.064 | F -0.545 ± 0.15 | I -0.911 ± 0.35 | A -0.048 ± 0.1
R51: W -0.077 ± 0.26 | P 0.216 ± 0.16 | S -0.118 ± 0.12 | Q -0.063 ± 0.23 | G -0.001 ± 0.15 | V 0.026 ± 0.14 | A -0.165 ± 0.12 | L -0.059 ± 0.11 | T -0.214 ± 0.41 | M -0.328 ± 0.45 | Y -0.077 ± 0.21 | I -0.417 ± 0.39 | E -0.091 ± 0.36 | K 0.044 ± 0.18
S45: Y -0.045 ± 0.14 | C -0.03 ± 0.16 | K -0.646 ± 0.44 | R -0.259 ± 0.051 | M 0.156 ± 0.21 | A -0.424 ± 0.14 | W -0.54 ± 0.18 | G -0.119 ± 0.11 | V -0.056 ± 0.1 | L -0.183 ± 0.1 | T -0.133 ± 0.13 | N 0.261 ± 0.19 | P -0.166 ± 0.13 | I -0.039 ± 0.14
I46: L -0.282 ± 0.15 | N -0.012 ± 0.22 | W -0.709 ± 0.26 | T -0.387 ± 0.22 | R -0.127 ± 0.092 | E -0.437 ± 0.24 | Y 0.082 ± 0.22 | S -0.353 ± 0.16 | P 0.068 ± 0.15 | F -0.613 ± 0.088 | G -0.258 ± 0.11 | H -0.162 ± 0.22 | M -0.093 ± 0.26 | V 0.123 ± 0.12 | A -0.041 ± 0.13 | K -0.789 ± 0.38 | Q -0.39 ± 0.44
N43: M -0.373 ± 0.15 | T -0.215 ± 0.12 | S -0.317 ± 0.094 | E 0.017 ± 0.086 | W -0.79 ± 0.31 | L -0.115 ± 0.078 | G -0.011 ± 0.071 | H -0.37 ± 0.14 | A 0.01 ± 0.085 | D -0.222 ± 0.16 | F -0.361 ± 0.19 | C -0.083 ± 0.093 | K -0.231 ± 0.12 | P -0.472 ± 0.15 | R -0.12 ± 0.068 | V -0.181 ± 0.091 | Q -0.061 ± 0.12
F59: S -0.809 ± 0.25 | T -0.512 ± 0.37 | G -0.395 ± 0.11 | M -0.326 ± 0.19 | A -0.601 ± 0.22 | Y -0.28 ± 0.24 | I -0.355 ± 0.39 | R -0.477 ± 0.17 | E -0.433 ± 0.27 | W -0.255 ± 0.15 | P -0.783 ± 0.21 | L 0.107 ± 0.082 | D -0.8 ± 0.4 | Q -0.536 ± 0.41
K61: T -0.652 ± 0.22 | C -0.717 ± 0.38 | G -0.385 ± 0.12 | M -0.776 ± 0.34 | E -0.414 ± 0.16 | Q -0.647 ± 0.22 | F -0.608 ± 0.35 | Y -0.547 ± 0.44 | P -0.905 ± 0.34 | V -0.886 ± 0.3 | A -0.328 ± 0.15 | S -0.769 ± 0.19 | W -0.746 ± 0.21 | H -0.681 ± 0.29 | L -0.422 ± 0.12
C44: Y -0.183 ± 0.32
M67: A -0.574 ± 0.13 | H -0.973 ± 0.33 | D 0.029 ± 0.21 | G -0.744 ± 0.13 | K -0.688 ± 0.14 | E -0.483 ± 0.25
R48: L 0.191 ± 0.084 | D 0.402 ± 0.17 | E 0.125 ± 0.13 | I 0.117 ± 0.27 | C -0.417 ± 0.23 | W -0.018 ± 0.1 | S -0.002 ± 0.069 | K -0.005 ± 0.13 | G 0.089 ± 0.079 | P 0.346 ± 0.082 | Y 0.066 ± 0.25 | M 0.443 ± 0.22 | V 0.241 ± 0.11 | A 0.193 ± 0.09 | Q 0.134 ± 0.15 | T -0.013 ± 0.11 | F -0.318 ± 0.41
R53: F 0.257 ± 0.2 | L 0.228 ± 0.061 | N 0.332 ± 0.15 | P 0.142 ± 0.074 | E 0.412 ± 0.085 | Q 0.364 ± 0.077 | C 0.3 ± 0.082 | D 0.318 ± 0.12 | W 0.14 ± 0.068 | M 0.098 ± 0.086 | A 0.248 ± 0.058 | K 0.028 ± 0.097 | T 0.092 ± 0.08 | V 0.186 ± 0.063 | H 0.029 ± 0.2 | G 0.103 ± 0.052
E42: Y -0.674 ± 0.31 | V -0.798 ± 0.14 | W -0.642 ± 0.25
G66: V -0.798 ± 0.23 | L -0.459 ± 0.38 | F -0.562 ± 0.47 | M -0.574 ± 0.4 | P -0.802 ± 0.49 | D -0.866 ± 0.41
C57: F -0.806 ± 0.27 | L -0.708 ± 0.16 | K -0.687 ± 0.46 | D -0.689 ± 0.47 | V -1.01 ± 0.37 | A -0.738 ± 0.18 | S -0.836 ± 0.3 | M -1 ± 0.46 | Q -0.59 ± 0.33 | G -0.855 ± 0.23 | I -0.44 ± 0.2 | R -1.21 ± 0.32
C54: N -0.722 ± 0.38 | S -0.688 ± 0.083 | P -0.606 ± 0.21 | F -0.946 ± 0.19 | T -0.717 ± 0.12 | L -0.749 ± 0.087 | M -0.618 ± 0.14 | E -0.77 ± 0.13 | Q -0.922 ± 0.21 | A -0.552 ± 0.095 | Y -0.576 ± 0.16 | W -1.09 ± 0.22 | K -0.134 ± 0.17 | I -0.903 ± 0.28 | G -0.847 ± 0.1 | R -0.668 ± 0.079 | D -0.749 ± 0.23
N50: T -0.121 ± 0.086 | E -0.193 ± 0.16 | K -0.346 ± 0.15 | V -0.306 ± 0.1 | G -0.383 ± 0.11 | P -0.45 ± 0.16 | F -0.107 ± 0.13 | S -0.349 ± 0.088 | M -0.61 ± 0.15 | R -0.359 ± 0.073 | L -0.45 ± 0.082 | Q 0.032 ± 0.11 | I -0.415 ± 0.12
V65: W -1.02 ± 0.37 | L -0.708 ± 0.13 | F -0.739 ± 0.25 | D -0.601 ± 0.2 | S -0.291 ± 0.08 | Q -0.733 ± 0.17 | I -0.308 ± 0.12 | Y -0.234 ± 0.18 | A -0.306 ± 0.092 | C -0.571 ± 0.43 | P -0.814 ± 0.17 | K -0.851 ± 0.24 | R -0.895 ± 0.14 | T -0.536 ± 0.082 | M -0.012 ± 0.14
R58: K -0.497 ± 0.22 | A -0.272 ± 0.12 | Y -0.055 ± 0.18 | P -0.698 ± 0.18 | T -0.097 ± 0.1 | H 0.466 ± 0.11 | V -0.903 ± 0.27 | F 0.109 ± 0.2 | L 0.278 ± 0.06 | C 0.417 ± 0.39 | I -0.806 ± 0.49 | N -0.759 ± 0.17 | E -0.474 ± 0.33 | M 0.036 ± 0.09 | Q -0.046 ± 0.11 | W 0.565 ± 0.11 | S -0.877 ± 0.24
C62: S -0.757 ± 0.16 | A -0.015 ± 0.2 | Y -0.492 ± 0.31 | T -0.948 ± 0.27 | L -0.875 ± 0.24 | P -0.843 ± 0.38 | N -0.812 ± 0.45 | V -0.665 ± 0.23 | E -0.456 ± 0.27 | G -0.857 ± 0.19 | R -0.667 ± 0.19 | M -0.336 ± 0.17
Q55: S -0.115 ± 0.074 | G 0.088 ± 0.08 | N -0.265 ± 0.18 | K -0.202 ± 0.13 | V -0.425 ± 0.13 | E 0.251 ± 0.1 | I -0.611 ± 0.19 | A 0.099 ± 0.077 | C -0.324 ± 0.22 | M -0.53 ± 0.16 | L -0.006 ± 0.061 | Y -0.08 ± 0.17 | P 0.027 ± 0.093 | R -0.418 ± 0.084
Q56: N 0.143 ± 0.18 | R -0.127 ± 0.076 | C -0.391 ± 0.23 | L -0.022 ± 0.08 | H -0.09 ± 0.18 | F -0.006 ± 0.24 | V -0.134 ± 0.067 | E 0.1 ± 0.12 | T -0.013 ± 0.11 | W 0.39 ± 0.084 | P -0.205 ± 0.12 | M 0.002 ± 0.11 | D 0.397 ± 0.14 | I -0.134 ± 0.22 | K -0.3 ± 0.064
